Where no end group is shown, it is not given here.
Experiments:
[1] = molecular target: 6 kinases (of the selectivity panel, with slight activity); assay: cell-based or functional assay
[2] = molecular target: T1, MAP kinase p38α (non-phosphorylated, OH-p38α) as used in the Biacore inhibition in solution assay (human, UniProt Q16539 2-360, limits assumed); assay: Biacore 3000 inhibition in solution assay; p38α pre-incubated with peptide, free p38α captured on immobilised ureidoquinazoline compound; Biacore inhibition in solution assay
T1 construct: The text says the chip was calibrated with nonphosphorylated or phosphorylated p38α; also called MAPK14; SAPK2a
T1 sequence (Q16539 2-360 limits assumed): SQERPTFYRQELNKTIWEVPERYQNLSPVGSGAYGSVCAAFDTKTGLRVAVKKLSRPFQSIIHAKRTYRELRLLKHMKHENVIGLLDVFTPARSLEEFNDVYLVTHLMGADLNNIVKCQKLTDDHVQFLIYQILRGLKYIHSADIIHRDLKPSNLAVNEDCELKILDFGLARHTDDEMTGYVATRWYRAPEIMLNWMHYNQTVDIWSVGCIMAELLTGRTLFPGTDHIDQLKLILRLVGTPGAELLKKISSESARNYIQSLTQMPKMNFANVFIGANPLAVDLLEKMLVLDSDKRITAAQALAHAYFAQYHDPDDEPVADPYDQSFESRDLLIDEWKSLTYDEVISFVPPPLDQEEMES

p38β = p38β (UniProt Q15759 1-364, limits assumed); assay: cell-based or functional assay
Sequence of p38β (Q15759 whole entry): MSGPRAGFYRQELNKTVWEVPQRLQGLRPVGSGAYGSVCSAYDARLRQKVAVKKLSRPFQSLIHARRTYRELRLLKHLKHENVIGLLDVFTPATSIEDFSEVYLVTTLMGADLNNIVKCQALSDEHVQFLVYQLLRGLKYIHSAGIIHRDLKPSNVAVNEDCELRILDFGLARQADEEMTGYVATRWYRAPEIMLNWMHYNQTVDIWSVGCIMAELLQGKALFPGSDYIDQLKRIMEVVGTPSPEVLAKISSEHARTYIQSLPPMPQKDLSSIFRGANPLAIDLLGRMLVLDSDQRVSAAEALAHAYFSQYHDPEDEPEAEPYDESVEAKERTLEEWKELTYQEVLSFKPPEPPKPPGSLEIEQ

[3] = molecular target: T2, MAP kinase p38α, 6-his C-myc tagged protein expressed in E. coli (human, UniProt Q16539 2-360, limits assumed); assay: cell-based or functional assay
T2 sequence (Q16539 2-360 limits assumed): as the sequence (Q16539 2-360 limits assumed) above

[4] = molecular target: T2, MAP kinase p38α, 6-his C-myc tagged …; assay: biochemical kinase inhibition assay; biochemical enzyme assay, not Biacore
[5] = molecular target: T3, uniformly 15N,2H-labelled 6His-MAP kinase p38α (human, UniProt Q16539 2-360, limits assumed, uniformly 15N,2H-labelled); assay: NMR 1H-15N TROSY-HSQC titration, chemical shift changes in slow exchange
T3 construct: not shown: 6His tag
T3 sequence (Q16539 2-360 limits assumed): as above

| selectivity (kinase inhibition) compared to p38α [1] [fold] | Kd [2] [nM] | selectivity (kinase inhibition) compared to p38α (p38β) [fold] | IC50 (inhibition of MAP kinase p38α) [3] [nM] | IC50 for inhibition of the activation of MAP kinase p38α by MKK6 [3] [nM] | Ki [4] [nM] | Kd [5] [nM] | Binder |
| --- | --- | --- | --- | --- | --- | --- | --- |
| 500 to 1000 |  |  |  |  |  |  | Ac-HKSRALLIFQKIMWLRRQ [BB2702 (N-acetylated peptide …)] |
|  | 25 | 100 | 7 | 1 | 7 | < 1000 | Ac-HKSRALLIFQKIMWLRRQ (Synthetic peptide, all L-amino acids, peptide bonds throughout, N-acetylated; also called BB2702 peptide) [BB2702 (N-acetylated peptide HKSRALLIFQKIMWLRRQ)] |

Reference: patent US20160193281A1 (BLUEBERRY THERAPEUTICS, published 2016)
